{"source": "patent US20140148355A1", "about": "“COMPOSITIONS AND METHODS FOR ANALYSIS OF H3K4 METHYLATED CHROMATIN” (UNIVERSITY OF OSLO, priority 2011, published 2014)", "molecules": {"B1": {"name": "GST-ZCWPW1-CW: human ZCWPW1 CW domain (nt 714-942, from HEK293 cDNA) as GST fusion protein (protein)", "chain": "IRDQQKGEISGFGQCLVWVQCSFPNCGKWRRLCGNIDPSVLPDNWSCDQNTDVQYNRCDIPEETWTGLESDVAYAS", "modifications": "left off: a dimerising Fc or GST", "notes": "human ZCWPW1 CW domain (nt 714-942, from HEK293 cDNA) as GST fusion protein"}, "B2": {"name": "GST-Val1-CW: Arabidopsis VAL1 CW domain (nt 1575-1797) as GST fusion protein (protein)", "chain": "VFGKRTIVTTKPSGEQERWATCDDCSKWRRLPVDALLSFKWTCIDNVWDVSRCSCSAPEESLKELENVLKVGRE", "modifications": "left off: a dimerising Fc or GST", "notes": "Arabidopsis VAL1 CW domain (nt 1575-1797) as GST fusion protein"}, "B3": {"name": "GST-ASHH2-CW: Arabidopsis ASHH2 CW domain (nt 2547-2811) expressed and purified as a GST-fusion protein from bacteria (protein)", "chain": "VVDVTIEDSYSTESAWVRCDDCFKWRRIPASVVGSIDESSRWICMNNSDKRFADCSKSQEMSNEEINEELGIGQDEADAYDCDAAKRG", "modifications": "left off: a dimerising Fc or GST", "notes": "Arabidopsis ASHH2 CW domain (nt 2547-2811) expressed and purified as a GST-fusion protein from bacteria"}, "B4": {"name": "GST-MORC4-CW: human MORC4 CW domain (nt 1236-1422, from HEK293 cDNA) as GST fusion protein (protein)", "chain": "TVARPIPKVPDQTWVQCDECLKWRKLPGKIDPSMLPARWFCYYNSHPKYRRCSVPEEQELTD", "modifications": "also: GST fusion partner not part of the given chain", "notes": "human MORC4 CW domain (nt 1236-1422, from HEK293 cDNA) as GST fusion protein"}, "B5": {"name": "W865A: GST-ASHH2-CW mutant, tryptophan 865 to alanine (protein)", "chain": "MVVDVTIEDSYSTESAAVRCDDCFKWRRIPASVVGSIDESSRWICMNNSDKRFADCSKSQEMSNEEINEELGIGQDEADAYDCDAAKRG", "modifications": "left off: a dimerising Fc or GST; large carriers; small tags and cut ends", "notes": "GST-ASHH2-CW mutant, tryptophan 865 to alanine"}}, "key": {"[1]": {"biological_target": "T1, methylated H3K4 peptides (panel of biotinylated histone tail peptides) (Homo sapiens, UniProt P68431)", "T1 construct": "purchased Upstate Biotechnology", "test": "Histone peptide binding (pull-down) assay with biotinylated histone peptides", "conditions": "for preference for methylation state of H3K4 peptides: pull-down with biotinylated histone peptides, anti-GST immunoblot", "description": "(§1) FIG. 3 The ASHH2 CW domain binds histone H3 tails methylation on lysine 4. (A) Cartoon of the ASHH2 protein with CW, AWS and KMT (SET domain) indicated. The two recombinant proteins used in this study are also illustrated. (B) SDS-PAGE of purified GST and GST-ASHH2-CW. (C) Pull-down assay using biotinylated histone peptides and recombinant GST, GST-ASHH2-CW and GST-ING2-PHD as indicated. The ratio of proteins and peptides were 0.5 μg:0.5 μg. (D) Pull-down assay using biotinylated histone peptides and recombinant GST and GST-ASHH2-CW as indicated. The ratio of proteins and peptides were 1.0 μg:0.5 μg. (E) Surface plasmon resonance traces from an experiment with immobilised, biotinylated H3K4me1 peptide and GST-ASHH2-CW. (F) Dissociation constants for GST-ASHH2-CW and the three H3K4me peptides indicated calculated from surface plasmon resonance data. The number of replicates are indicated.\n(§2) FIG. 4 CW domains from four different proteins bind methylated H3K4 peptides. (A) Cartoons of the proteins studied: human MORC4, Arabidopsis VAL1, and human ZCWPW1. (B, C) Pull-down assay using biotinylated histone peptides and (B) recombinant GST, GST-Val1-CW and GST-MORC4-CW or (C) GST, GST-ASHH2-CW, and GST-ZCWPW1-CW, as indicated. The ratio of proteins and peptides were equimolar.\n(§3) FIG. 7 Probing the predicted histone tail binding site with mutant CW domains. […] The predicted binding site for the histone tail is indicated as in FIG. 6D. (B and C) Pull-down assays using biotinylated histone peptides and recombinant GST and GST-ASHH2-CW mutant proteins as indicated. The ratio of proteins and peptides were 1.0 μg:0.5 μg.\n(§4) Histone peptide binding assays were performed as described by Shi et al (2006) with biotinylated histone peptides from Upstate Biotechnology. The protein-peptide ratio used is indicated in the legends to the figures. Bound proteins were visualized by immunoblotting using rabbit anti-GST antibodies Z-5 (SC-456) from Santa Cruz at a 1:20,000 dilution, and a donkey anti-rabbit HRP conjugate (Amersham NA934) at a 1:10,000 dilution."}, "[2]": {"system": "H3K4 methylated chromatin", "test": "Chromatin pulldown (ChPD) with western blot detection", "format": "binding", "conditions": "antibodies against each of the three H3K4 methylation states; Arabidopsis seedling chromatin", "text": "(§5) FIG. 8 Chromatin pulldown (ChPD) using the ASHH2 CW. […] Modified histones were visualised by western blot using antibodies as indicated. Molecular size markers are shown to the right. (B) qPCR with primers for assumed ASHH2 target genes on DNA isolated from seedling chromatin pulled down with GST-CWASHH2. ChPD with GST alone was used as a negative control. Data are shown as percent of input. The Ta3 retrotransposon was used as reference. Standard deviations are shown. (C) ChIP using antibodies against H3K4me1, H3K4me3 and H3K36me3 and primers for the same genes as in (B). Data are shown relative to Ta3. (D) ChPD from wt and ashh2 mutant seedlings as in (A) using antibodies as indicated. ChPD with GST alone was used as a negative control and histone H3 as reference.\n(§6) Chromatin pull-down (ChPD) was performed using crude chromatin in ChIP dilution buffer (1.1% Triton X-100, 1.2 mM EDTA, 16.7 mM Tris-HCL pH 8, 167 mM NaCl) prepared as for ChIP (Gendrel et al., 2005) incubated with 8 μg GST-CW fusion protein and control proteins (only GST alone, or together with GST-CW-W874A and GST-WIYLD) over night. For western blotting, the pulled down chromatin was washed three times in ChIP dilution buffer, run on a 15% SDS-PAGE and blotted onto a PVDF membrane. […]"}, "[3]": {"biological_target": "biotinylated H3 peptide trimethylated on lysine 4 (H3K4me3) (Homo sapiens, UniProt P68431)", "test": "Surface plasmon resonance (BIAcore T100) binding to immobilised H3K4me3 peptide", "conditions": "GST-tagged protein 0.1 μM to 10 μM, HBS-P buffer", "description": "(§7) Surface plasmon resonance binding assays were performed on a BIAcore T100 biosensor according to the manufacturers protocols using immobilized, biotinylated H3 peptides monomethylated (0.54 ng), dimethylated (0.24 ng), or trimethylated (0.48 ng) on lysine 4. GST-tagged ASHH2 CW protein in five different concentrations in a range from 0.1 μM to 10 μM was injected for 2 min at a flow rate of 10 μl/min. Each sample injection was followed by injection of HBS-P buffer (10 mM HEPES pH 7; 150 mM NaCl) alone for 5 min at a flow rate of 5 μl/min. Kd values were obtained using the Biacore T100 Evaluation software 2.0.1. Measurements were repeated 2 to 5 times."}, "[4]": {"biological_target": "biotinylated H3 peptide dimethylated on lysine 4 (H3K4me2) (Homo sapiens, UniProt P68431)", "test": "Surface plasmon resonance (BIAcore T100) binding to immobilised H3K4me2 peptide", "conditions": "GST-tagged protein 0.1 μM to 10 μM, HBS-P buffer", "description": "as §7"}, "[5]": {"biological_target": "T2, three methylated forms of H3K27-peptides (Homo sapiens, UniProt P68431)", "T2 construct": "purchased Upstate Biotechnology", "test": "Histone peptide binding (pull-down) assay, methylated H3K27 peptides", "conditions": "protein:peptide 1.0 μg:0.5 μg", "description": "as §1, §4"}, "[6]": {"system": "methylated H3K4 peptides (panel of biotinylated histone tail peptides)", "test": "Histone peptide binding (pull-down) assay with biotinylated histone peptides", "conditions": "panel incl. trimethylated H3K27 and H3K36 peptides", "description": "as §1, §2, §3, §4"}, "[7]": {"biological_target": "biotinylated H3 peptide monomethylated on lysine 4 (H3K4me1) (Homo sapiens, UniProt P68431)", "test": "Surface plasmon resonance (BIAcore T100) binding to immobilised H3K4me1 peptide", "conditions": "GST-tagged protein 0.1 μM to 10 μM, HBS-P buffer", "description": "as §7"}, "[8]": {"system": "H3K4me2 in Arabidopsis chromatin", "test": "Chromatin pulldown (ChPD), western blot quantification, H3K4me2", "format": "binding", "conditions": "chromatin from Arabidopsis seedlings, anti-H3K4me2 western blot", "text": "as §5, §6"}, "[9]": {"system": "H3K4me1 in Arabidopsis chromatin", "test": "Chromatin pulldown (ChPD), western blot quantification, H3K4me1", "format": "binding", "conditions": "chromatin from Arabidopsis seedlings, anti-H3K4me1 western blot", "text": "as §5, §6"}, "[10]": {"biological_target": "T3, H3K4me3 peptide (Homo sapiens, UniProt P68431)", "T3 construct": "purchased Upstate Biotechnology", "test": "Histone peptide binding (pull-down) assay, H3K4me3 peptide", "conditions": "protein:peptide 0.5 μg:0.5 μg", "description": "as §1, §4"}, "[11]": {"system": "chromatin associated with genes regulated by ASHH2", "test": "Chromatin pulldown (ChPD) followed by qPCR on ASHH2 target genes", "format": "binding, Arabidopsis", "conditions": "seedling chromatin; GST alone as negative control", "text": "as §5, §6"}}, "data": [{"molecule": "B1", "values": [{"measurement": "preference for methylation state of H3K4 peptides", "setting": "[1]", "result": "clear preference for H3 Kme2 and me3 peptides"}]}, {"molecule": "B2", "values": [{"measurement": "preference for methylation state of H3K4 peptides", "setting": "[1]; listed as VAL1", "result": "strongest preference for K4me3"}, {"measurement": "preference for methylation state of H3K4 peptides", "setting": "[1]; listed as VAL1 CW", "result": "clear preference for H3 Kme2 and me3 peptides"}]}, {"molecule": "B3", "values": [{"measurement": "pull down of H3K4 methylated chromatin (western blot signal)", "setting": "[2]", "result": "Strong signals"}, {"measurement": "Kd", "setting": "[3]", "result": 4, "unit": "µM"}, {"measurement": "Kd", "setting": "[4]", "result": 2.1, "unit": "µM"}, {"measurement": "binding to methylated H3K27-peptides", "setting": "[5]", "result": "no binding was observed"}, {"measurement": "sequence selectivity on histone peptide panel", "setting": "[6]", "result": "only binds the methylated H3K4 peptides"}, {"measurement": "preference for methylation state of H3K4 peptides", "setting": "[1]", "result": "preference for mono- and dimethylated H3K4 peptides"}, {"measurement": "Kd", "setting": "[7]", "result": 1.15, "unit": "µM"}, {"measurement": "bound H3K4me2 chromatin relative to input chromatin", "setting": "[8]", "result": "3.3 times of input material (2.5%)"}, {"measurement": "bound H3K4me1 chromatin relative to input chromatin", "setting": "[9]", "result": "4.4 times of input material (2.5%)"}, {"measurement": "binding to the H3K4me3 peptide", "setting": "[10]", "result": "close to background levels"}, {"measurement": "binding of chromatin associated with ASHH2-regulated genes (real-time PCR)", "setting": "[11]", "result": "significantly above background levels"}]}, {"molecule": "B4", "values": [{"measurement": "preference for methylation state of H3K4 peptides", "setting": "[1]", "result": "preference for H3K4me2"}]}, {"molecule": "B5", "values": [{"measurement": "histone tail binding of mutant ASHH2 CW domains", "setting": "[1]; pull-down, protein:peptide 1.0 μg:0.5 μg", "result": "abolished histone tail binding"}]}]}
